Assay results: the supplement of paper PMC12042874
± gives the uncertainty stated by the source.

Assay: amyloid nucleation score (Sup35N fusion, yeast selection) (log enrichment); library NNK2; higher = more nucleation; inactive = no reads after selection
Summary of the method: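 Random libraries were run with three technical output replicates. In each, psi-negative yeast expressing Sup35N fused to peptides of 20 random codons were induced 24 hours with 100 μM copper sulfate and grown 7 days at 30°C on medium lacking adenine and uracil, and input and output plasmid inserts were Illumina-sequenced. The nucleation score is the DiMSum log enrichment of output over input reads, centred on the mode score of non-aggregating sequences, and sequences under 100 input reads were excluded.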

Row | Substance | amyloid nucleation score
1 | TYVLAIGLFWRYPF | 3.22 ± 0.083
2 | RSGAVQWRQRMGCMPSVCDR | 1.46 ± 0.26
3 | TCVVIQGIRGWGWMSVSFMP | -0.829 ± 0.63
4 | LLEVGSKKCGHPLSTYSKAN | 0.463 ± 0.48
5 | AHCIFVLDGAKFRLWCLGSG | 1.11 ± 0.41
6 | CKWWGRGEGDIVVLWLSEKL | 0.942 ± 0.66
7 | QSPSL | -0.381 ± 0.79
8 | HLNVKLKQVKDGQPCLMRLA | 1.67 ± 0.4
9 | HLLRNLLPHKVGSHVHRWLR | inactive
10 | ANYMRYYSGLICFTESRYMS | 1.5 ± 0.17
11 | NGLYVAIFSVNLFPPLTKYI | 5.422 ± 0.053
12 | WNGYNGRDMCGKLCGVCTLG | 0.219 ± 0.43
13 | KARSRLLVFYKYTKGIWAQS | -0.147 ± 1.1
14 | LKPSSFVYIITDQFSNHIVM | 5.84 ± 0.065
15 | FKLICTRSWLRLG | 3.91 ± 0.056
16 | RVGSFG | 0.596 ± 0.4
17 | NLCDLDRGNEYAWWRVFMRS | 4.38 ± 0.11
18 | WSLLV | 0.478 ± 0.8
19 | VFGSEVSNIRRESWRSLIGQ | 0.756 ± 0.18
20 | SRLLIREYNLVSNDKFIYFV | 3.01 ± 0.073
21 | DWTDCYWMLRDTGGFSIS | -1.35 ± 0.78
22 | KRGSAEFNQLDHYECTRYEC | inactive
23 | MDSILVNVYVVNW | 9.259 ± 0.042
24 | SRICLLTYMGSIINRDVSVY | -1.6 ± 0.55
25 | IFCADMVLNFGGMCPARERA | 0.038 ± 0.8

Row | Substance | amyloid nucleation score
26 | VTRFLISYTRIGRMYSVGFV | -0.523 ± 1
27 | NCQRVWYCWVALSLCETCID | 5.168 ± 0.047
28 | GSFMYSREVRLRYALARSFE | -0.545 ± 0.41
29 | LSINSFTKHQ | 0.148 ± 1
30 | CGLYWFMVFTF | 0.147 ± 0.76
31 | CRIGA | -0.252 ± 0.28
32 | LCWEVRTLEFIGFTQSYGKG | -0.005 ± 0.33
33 | DSRMRWL | 0.149 ± 0.27
34 | GENTRSINVSSGMQEQSRKT | 0.523 ± 0.38
35 | RFLCFLPNNYLFSAGFSLVL | inactive
36 | CDFSSVTD | -0.357 ± 0.4
37 | FGKPGPRFLSSPGFSYP | 0.382 ± 0.51
38 | FYLWATTYQCRFFIRYAKFS | 2.97 ± 0.084
39 | MRSDYTSWVWVCVFMLTLGV | -0.679 ± 0.32
40 | SILALTE | -0.072 ± 1.1
41 | RVPSSHF | 1 ± 0.47
42 | TAYSA | 0.521 ± 0.41
43 | GKVAAGVIGRYTY | -0.477 ± 0.22
44 | FALNLFCEDKCLYCSLVSS | 2.92 ± 0.066
45 | FSIISGCFRNVVDLLRMLNL | -1.2 ± 1.1
46 | DAKRVQIYF | 1.02 ± 0.68
47 | VLECFFVA | 0.183 ± 0.5
48 | SVINYVFMGDHPYHNVIFRF | 7.576 ± 0.051
49 | IIMLYEYHLITGTMNAMHRV | inactive
50 | RYRTMSTRHPAYGVGGLLLM | 0.544 ± 0.36

Row | Substance | amyloid nucleation score
51 | MFYFRFLKGTSQMIKAAMRS | -0.059 ± 0.49
52 | VEHARGDRCCRQDYGVQQYK | 2.68 ± 0.23
53 | WCHTGKRINFPFICFLWFWC | inactive
54 | LRSACCLIRSLNTAVCGWTK | 4.22 ± 0.048
55 | WLCYRGEFRYFDPVGNDLRN | inactive
56 | DMCDYQSVGF | inactive
57 | SMTNNMGLLE | -0.979 ± 0.76
58 | SSKSCVPQVLINILDDSTVN | -0.632 ± 0.79
59 | IEVFDIWCPAGFVMEALRFV | 4.28 ± 0.099
60 | SQPSDWVYFNVGYCCVLMCL | 9.398 ± 0.027
61 | FIITNWQVSFRL | 4.383 ± 0.042
62 | VEARKLYQCMCVVRC | -0.143 ± 0.28
63 | CSLFYRSS | 4.06 ± 0.056
64 | FCLLPIDQPVTGIFLVR | -0.158 ± 0.63
65 | TVLCTRRLAWRYRLHFFFQ | 3.16 ± 0.073
66 | LVQYMTMRCVFSNIGGMTSG | 0.263 ± 0.64
67 | MFVVKNRGCVM | -0.16 ± 0.3
68 | YSYVVNLLTYTRSECKMLV | 5.738 ± 0.035
69 | SSMQPHLVSSVL | 3.7 ± 0.07
70 | IGLYGNANPMTGVHSHLLCG | -0.088 ± 0.54
71 | YSFYAGFVNYIKVWNNRG | 4.23 ± 0.05
72 | AIQQTQLLCIENMVGLFVVR | 0.58 ± 0.64
73 | VLLHCRSICGTRLALPLTGR | 1.57 ± 0.4
74 | SRPDLHHAKALYFNDLRRE | 0.232 ± 0.27
75 | CCVVYF | 9.638 ± 0.039

Row | Substance | amyloid nucleation score
76 | MCSQGCTHFRVAWPLRACRW | 3.85 ± 0.072
77 | VITVTPGGHVPWVLASNGNI | -1.53 ± 0.78
78 | LYRRIRCFIYPFCKGVRCLC | -1.77 ± 0.62
79 | VYNSFSAFFYG | 7.051 ± 0.036
80 | FVPFYYKADKLTILSS | inactive
81 | NSESVICVLQGGFIRACV | -0.551 ± 0.45
82 | FQCDVSCSVYKSWEMFQGIT | 0.164 ± 0.8
83 | KAKWFNFLFYNFLQYACLSQ | 1.37 ± 0.087
84 | SQLYE | 1.23 ± 0.44
85 | FEVFLM | -0.499 ± 0.41
86 | CSLQYYSLRNDRDRVTELRR | 0.475 ± 0.51
87 | FQGVVSRYSYYS | 1.81 ± 0.22
88 | EFNYHVQRSLFSR | 0.285 ± 0.65
89 | KLRFYIYCFILLKCMTGART | inactive
90 | YYAGADFEGNSCGDSIPACR | -0.208 ± 1.1
91 | MRMGMLKMTFFGCSPDLKRL | -0.277 ± 0.38
92 | TCGYGLSWLSGSPSMIMWMW | 0.009 ± 0.63
93 | GVTFSSMLRPFSAIAKRLVV | 0.733 ± 0.56
94 | CYGVFLVVSWDHGGDQIGVV | -0.482 ± 0.48
95 | FSMRFRKVFICKMDIQQAYV | 0.13 ± 1.1
96 | ILYVACSNMRCPILFMAGA | 2.12 ± 0.12
97 | LSDGN | -1.04 ± 0.76
98 | SEYVLLT | inactive
99 | LSIFKGNTNLLLSYVPALNI | -1.29 ± 0.64
100 | LSNWHHFSQSRDFDKSLWVS | -0.386 ± 0.42

Row | Substance | amyloid nucleation score
101 | EFLLYRTSVP | -0.205 ± 0.76
102 | VNWGNGVFAGFLWYYVRPCH | -1.03 ± 1.1
103 | LCFMF | 0.4 ± 0.51
104 | SDMTNS | -1.55 ± 0.64
105 | KKKDSAKLLVTE | -0.409 ± 0.76
106 | QCFSLGGWVCFVIDVC | 9.476 ± 0.079
107 | CNYKYSDLVFHCLPPGRGYN | inactive
108 | IIYYWAPLVITMEFQERRVR | 6.395 ± 0.038
109 | TAVCKISPQQWAGCHLIHRH | 5.3 ± 0.095
110 | NVAGCSWSSQLPRPTP | 1.46 ± 0.61
111 | SDGARLWR | 0.097 ± 1.1
112 | GMLFRWCG | 7.56 ± 0.047
113 | HPMLLMKNARG | -0.086 ± 0.27
114 | NMYTWAE | 0.371 ± 0.6
115 | FKFVIYRFIFHPSEVPKGD | 0.057 ± 1.1
116 | ESVRASPV | 0.093 ± 0.28
117 | AMLRPQTDHGVSSIHSLIIG | inactive
118 | DYLKLLAYNVLFR | inactive
119 | CILARWRYRRLHTSGLWASK | 0.9 ± 0.43
120 | SPLSSKDCYGKTERSVWHVM | 0.588 ± 0.4
121 | YCGDLRCCKTHLSCRSCVSN | inactive
122 | VFMGNSLHFRRSTVAHWRSN | 1.39 ± 0.41
123 | TLWVDRVREMC | -0.809 ± 0.36
124 | VMRHERTNFIYSKWWGFVEE | -0.011 ± 0.65
125 | PIRLQIWVWPVPKR | 0.8 ± 0.55

Row | Substance | amyloid nucleation score
126 | CLINMTIYGERWRCVNDVPN | 3.54 ± 0.052
127 | LHSRFL | 0.236 ± 1.1
128 | YGPLNFDTSP | 0.74 ± 0.16
129 | HSFLPRGHVADYNKLPVWSV | -0.707 ± 0.61
130 | VIYFHHVTYSIYPLL | 0.561 ± 0.62
131 | YSFGVQC | 0.067 ± 0.25
132 | TMGYNFRCYVPLMNMLVRGV | -0.614 ± 0.54
133 | KNSCSMYVMMCGSQVLGLVS | 7.75 ± 0.084
134 | MNYRCKYAQDTHLSEQSSQE | -0.799 ± 0.33
135 | LSVSHMCEADLQYRTLFLSK | -0.606 ± 0.37
136 | DCQVSTLAYWSRVKMFQYQK | 3.71 ± 0.077
137 | FLCVTISLDNSVACLPLRYS | 0.532 ± 0.66
138 | LRVMSVRYSICVKYNVEFRL | 1.18 ± 0.21
139 | NGLYCFEVLLGSSAFPWTG | 3.63 ± 0.082
140 | REDRNATLCIVV | 2.67 ± 0.13
141 | LAGYNFLKETRDMVTIMAYE | inactive
142 | RESYMLSYGKILNACQCIVG | 9.12 ± 0.079
143 | NSYILKDFNCEPGVNMDWQN | inactive
144 | NMIVYC | inactive
145 | VCLFLSNQRMWYVEFNTC | -0.549 ± 1
146 | WSTFSTFTGYSA | -0.335 ± 0.5
147 | TDNHFVTRCTYVAFQLTYKV | -0.375 ± 1.1
148 | WLLWS | 0.472 ± 0.26
149 | TAFVSHL | -0.288 ± 1.1
150 | YMRDFYRVRNYRRCCVVCPS | -1.59 ± 1.1

Row | Substance | amyloid nucleation score
151 | QSMTTQNLGVWEELCKAFLI | inactive
152 | ARFWWALGNLCERIAGNDWV | 0.216 ± 0.44
153 | ERVDVI | -0.364 ± 0.32
154 | FNDSPSYWFSHYIAARSSVE | -0.37 ± 0.36
155 | IINSANM | 0.736 ± 0.74
156 | IGLHVWHLSLKGSSDLSGTV | 1.85 ± 0.12
157 | DSGLSHSNQWVDFSEYPTRL | inactive
158 | SGNIAMFVPSVRWSVRDYCC | 1.06 ± 0.14
159 | SQILTMWYLVIYYMSNRFGG | inactive
160 | ILIIRLKFLVIVAITSTGSD | inactive
161 | FTFIHFLCVSVHLLNSWS | 0.42 ± 0.56
162 | CFVWIIRLYVQSRMLSTSNL | -0.181 ± 0.8
163 | IHRGFILADTLHHYCSGLLI | -0.199 ± 0.65
164 | WVSSQAEWGVLCGICRSLES | inactive
165 | LVSYQVFSWSEPENSV | -0.239 ± 0.79
166 | VVTIIRSSVWVSTLCFGFFV | 4.01 ± 0.068
167 | GTTCDIEDVPCMLVVDTLLV | 1.42 ± 0.16
168 | QDRGHSVL | inactive
169 | RLASSIRWTTFSSDGRVRIL | 0.783 ± 0.57
170 | WSVVLWDVEGYWASASSQLW | 0.907 ± 0.35
171 | RYLNWRVCSNRLPGSEGLWA | 0.323 ± 0.32
172 | VKWKLGLTWMVVIIDGVLCV | 0.963 ± 0.35
